Our source for the protein production values is a protein production outcome set (Wang et al. 2014).

A short description of the data set: label from the status in PepcDB records.

Consider “MDKAATPWLRYLEELRPHLQGRDHRGRKGSLRWLEALMAERGGRAGTVRNILYKDLGSPEEKERLYRILADLYREAGLKPPPPPAELFLKSARKVLGRDKRRIFRHFLRELEAGRRPQVVVVGGAATGKGVLLSALRQALAAFPGKTPFVLNLGGELAQALIPLAEELGVEAETLLSQLSPTQPYILQGALQQEFLAALAQALNRAGRPLLLRAEAQGTLEGLPLRGPDGGQRGLSAWLEPFLRSLEIPYLAALTEPPPTLPYQPLSPPSREEARRFVRERLPHLPPERLEALVNQAGRNFGELSRLVLLEAAKHDPETPLQDDPALRPLLEALAAFSPEADPAFPAALLERALNRPLERLSQAEKALLEWVGDGLVRPSLRSLLPQEAPRELHRLALEFFPRENLFRRLYHARKAGERRILLDLLTEDPARLALLPGLWQEARSWPKEDREALAAALVRYRAVLGQYAHPEVEEALALLAQAEDPRLRASARIKAAEAKADAGLYKEAEALLPPEEEFPLLDETARAEGLLVRAAVERWKGDYEKAARYAERAAELSVAPFLKDRVQLWRGLVAKDLGRYEEALTALAQVGHDPLLLGRARYQMGDLLMRLGSPEARARMEEGLKALEEAGAPQDEVARVRARYATLLRRLGLYPEAEAAIRRALEEALDPFTRARVESEAGILQAAQGRPLEALALLSRAEAYFRTTGERPKEARYRHLRTLFRLAAAYLLLETGTPYRPPLLGGLKAPEAERLLWDLLAKIPEEATDRYTALRLDAESLLALLLPPKEARERLRPFLGLANPYLRAQARLGYAEALLREGAYGEALAQTVALPPLLDPGLKAQAKATEVLALLALGEEEAAWQKLVEAKQSGLPEPFRLQLGRAVGRAHPGLAARLPPTPLAPPEALGLHLANPD”, for which the protein production entry was “failed”.

As for “MDKFSDMTMFVSIVKHQGLAAAGRELGLSPATMTARLQALEERYRVKLLNRSTRHVSLTDAGELYYKASLEILDNVNETENLILNGVKEVKGALRVAAPKDIGKQYILPILSEFCEKYPDVVPYLYLNDDVSNIAESGIDIVVRYGELADSSLISRRLSSSHRVLCASPDYLAKYGTPLTPQDLINHHCLAMVRSHEELKTWHFQGSDKKNVITVLPKRFSDDGEVVRYWALEGAGIALKSILDVQDDINNRRLVTVLNGYMANFNTSTSVSSADLNVVYMSKKYQPKRIRLFLDFLLERFETMKNGGK”, the protein production result is “not failed”.

As to “MDKKENTVVLFPQLSERYIDEGFLALKERKFEDALRCFEILRQYNAETEQTELASVICLLELKRMEEAKDKCEQLLKTGVVLFGDILETYVTILVQTNDYEGVIETVEKVLQTKDIMPDQKEKLAQLALFAEGMLNEGDASLVDSNFELDEFTNEIFGENFGQKLRAIQRLSLKDLDLALPVLKKFLIEEEQHPYLKTSILYKMIESQVEEEIEVEKFGNTIKVIPAFTGHNEEQSNNIIHKLSSRLEQNYPDIFEAMVTYWKELQISVFPFALLMDKEEIWSAVLERIGRKRFGLAIDEEELMAAYNIELEEFHIAYQWLLRVEREGYLPV”, the protein production result is given as “failed”.

“MDKKKHSLKAPVMTHRAFLALAIPLIFSAMTTPLIGAVDTAIVGHLQDPALIGGVAVGALIFNTMYWLFGFLRVSTSGFSAQALGRKKEDDIMLAFVRPFLLAMFVGLSFILLQHPIKSASLLIISPPEHVGLFAEQYVAIRIWGAPFALISYVVIGWLMGIGRIRGAVTIQIGTNLLNVALDFLFVYWMQWGIGGVAAASLIAEVTGAVAGCLFVLRCYSFSVFSSLTQVLDKRPILHMLTVNRDLFIRTICLLTVLTTFTSIGARFGEVSLAANAILLQLHYLMAYMFDGVANAASIVVGRSVGARDRSLFERVVRLDIVWSSVICLWLVCTLGLMKEPIIALFTSIPAVQAETLQLFGWIMLFPIAGFWGLQLHGMFSGATVARPIRQSMIIAMLVFLISCWLFVPLWGNNGLWLSFIVFTIARSMTLHLSYPALQRLFHDKERSIGA”: the protein production result was “failed”.

With “MDKLKVAELFAGVGGFRLGLENTKEKIFDVTWANQWEPSKKIQHAFDCYNSRFITGEHVNKDIALISDEEIANTKADMVVGGFPCQDYSVARSLSGELGIQGKKGVLFWQIIRFIQNTYPKYLLLENVDRLLKSPSSQRGRDFGVMLSTLNELGYNVEWRVINAADYGNAQRRRRVFIFGYKQDLEHHHHHH”, the protein production entry is “not failed”.

For “MDKLKVAELFAGVGGFRLGLENTKEKIFDVTWANQWEPSKKIQHAFDCYNSRFITGEHVNKDIALISDEEIANTKADMVVGGFPCQDYSVARSLSGELGIQGKKGVLFWQIIRFIQNTYPKYLLLENVDRLLKSPSSQRGRDFGVMLSTLNELGYNVEWRVINAADYGNAQRRRRVFIFGYKQDLNYADLIDKYSLEDIVYNSGMFAKAFPIEKEPNKNRVNSSTITNDIVDISNNFSFQFYNSGIMKNGEILTIDTIPIFEKPTPLKEIVLKEVDDKYSLADEKIEKFKYLRGPKKIKRTSKDGHEYYFSEGGMSEFDSLDLPARTMLTSEASVNRSSHFLSIGGKFRTLTPIEAERLNGFPDNWTDTMPDRMRYFCMGNALVVPLVTRIGNQIEKIEKITNDDFSQLKLF”, the protein production entry was “failed”.

Regarding “MDKLRVPFHRPYVNLRRCSERLVMHIHILGICGTFMGSLAVLAKESGHRVTGSDANVYPPMSTQLQAQGIELTQGYDPAQLDPAPDLVVVGNALSRGNPAVEYVLNKGLPYVSGPQWLADHVLQDRWVLAVAGTHGKTTTSSMLAWVLEHAGMSPGFLIGGIPQNFAVSARLGDTPFFVVEADEYDSAFFDKRSKFVHYRPRTAILNNLEFDHADIFPDLPAIERQFHHLVRTIPSEGLVIHPTTEPALSRVIEMGCWTPVQTTGDGGQWQARLLSEDGSRFEVLFEGELQGAVEWDMTGQHNVANALATLAAARHVGVVPSLGVQALSAFKSVKRRMEKVAEVRGITIYDDFAHHPTAIATTLDGLRKKIGDAPIIAVIEPRSNSMKLGAHRDGLPESVSQADQVVWYAPPNLGWDLAATVAGGSVPSTVCDSLEAIIARVHSQVQPGTHIVIMSNGGFGGLHGKLAEALK”, the protein production result was “failed”.

Turning to “MDKNIFNILKKYFGYSSFRRGQENIIQSILDGNDTFAIMPTGGGKSICYQVPALYMKGLTIVITPLISLMKDQVDTLRENGVNASYINSTLSSKETNDILMSALSGHLKILYVAPERLEQDYFRNAIKDLTISMVAIDEAHCVSQWGHDFRVSYKRIVPFINIFDKRPIVAAFTATATDEVKKDIINLLELKEPNCFITGFDRDNLFFSIVKNENKFDFITKYLSKHKELSGIIYAATRKEVDSLHQKLISQGYSVGKYHAGMGDKERSESQDLFLYDETKLMIATNAFGMGIDKSNVRFVIHYNMPKNLESYYQEAGRAGRDGEKSECIILFSGQDIQIQKFLIKQSIPSFDRQRIELKKLNDMINYCMTTSCLRKYILNYFGENYEVENCDNCINCTGNVEIVDITLEAQKIISCIYRMGQNFGVTMIAEVLKGSKNSKVLRFNFDKLSTYGIMKDCTLKQITNLINTLIADGYLYLSDSEYATVKMSQKSIEVLKGYKKVVQKIHIVEELSLSTDNTLFEILKALRLEIARRENVPPYIIFSDSVLSEMCKYYPKDKNSMLQIKGVGEIKYNKYGEIFEEKIREYIKETNLTPEDNNKGTLKVPELLSKKIPTHIETFNLYKKGITIADMAKIRNLSIPTIQEHILKCANEGLNVNLDAYIPAEYKDLIYEKIRILGTSKLRPIKDALPDDVDYMAIKAAICKYTSKNKAI”, the protein production entry is “failed”.

“MDKNIWTSRRRRGRSHHRSPALRQCDSSERYTSGASQSSQDSGHHDVECPSTSSSKAGESSVPDLPGFYFDPEKNRYFRLLPGHNNCNPLTKEGIQLKEMESRRLQLLQQEDKQKKKIARVGFNASSILRKNQLGFLNFSSYCRLSHELRVACMERKKVEIQSSDPSALASDRFNFILADTTSDRLFTVNDVKIGGSKYGIISLQGLKAPTFEVHMHENLYFTNRKVNSVCWASLNHLDSHILLCLMGLAETPGCATLLPASLFVSSHQGTDQPGMLCSFRIPGAWSCAWSLNVQANNCFSTGLSRRVLLTNVVTGHRQSYWTNSDVLAQQFAVKTPLLFNGCRSGEIFAIDLRSPSQAKGWKATQIFHDSAVTSVQVFKEEQYLMASDMAGKIKLWDLRATKCVRQYEGHVNEYAYLPLHMHEEEGILVAVGQDCYTRIWSLHDARLLRTIPSPCPTSKANIPSVAFSPRLGGPRGAPGLLMAVQQDLYCFPYSSSCPDGLKEGRWEPSSVSKEDIL”: the protein production entry is recorded as “failed”.

With “MDKQTSPQEEIPELAVAVPQDAAALARALDLEAQTVSTWLTQGLGIVARVGSQIVGLAHLVDDGGHADVTDLALTTPDDADVVAALIGGAEQIATELESRVLVVSGLKASPGPAYHYNSGWVRVLPTRVVVPTAEAMHAFGAALAAQLRAGDIVLASGDLGAGKTTLAQGIGRGLGVDGPVISPTFVLARRHVGSEGRPGLVHVDAYRLGSAAELIDLDLDETMDQAVTLIEWGAGIAEDLGGSHLDVDIRRSGDPADETRVVYLEGFGPRWQDVDLSLLSELPLDTISPDQTGDNN”, the protein production entry is given as “failed”.

For the sequence “MDLALAPETLARWQFGITTVYHFLFVPLTISLAALTAGLQTAWVRTEKEKYLRATKFWGKLFLINIAMGVVTGIVQEFQFGMNWSDYSRFVGDVFGAPLAFEALIAFFFESTFIGLWIFGWDKLPKKIHLACIWMVSIGTLLSAYFILAANSWMQHPVGYRINEEKGRAELTDFWQVLTQNTTLNQVFHSFSAAFLTGGAFMVGIAAFHLMRKKHIPVMRTSLRLGLVTLAVGGLLTAVSGDTLGKVMYEQQPMKMAAAEALWDGEKPAPFSVFAYGDVDKGHNKVALEVPGLLSFLAHSDFESYVPGINDTNKALQEQFGPGDYKPIVPVAYWGFRWMIGFGMASFSLGLLGLWLTRKRFLLPPALRTGEDEVPHLVLLKKPLGARLTRMYWLLALWTMAFPLIANSWGWIFTEMGRQPWVVYGVMQTRDAVSPGVSTAEVIISMSVFTLLYAVLAVIEVKLLAKYVKAGPPELTEADLNPPTKIGGDLRDADKPMAFSY”, the protein production entry is listed as “failed”.

For the sequence “MDLFPVLKELAQKTPSKILLIVLDGVGGLPLEPGGPTELEAAKTPNLDRLAEESALGLLTPVYPGLAPGSGPGHLALFGYDPFRYVVGRGALSALGLGADFREGDVALRGNFATLDPEGKVVDRRAGRPPTEENQRVIAKLKEAIPRIEDVEVLFYTESEHRFLVILRGEGLEDKVTDTDPQKTGLPPLKAKALDEASERTARLVNLLSERIREVLKDEPRMNGALFRGASKKPSFPRMQEVYKLTPAAIASYPMYKGLASLVGMEVLPVEGEGDALEGKLKALKENWGRYDFFYFHVKKTDAMGEDGNFHGKVEKVELFDALLPEILALGPDVLAITGDHSTPALLKAHSWHPVPLLLKAPYLRADEARRFTEREAQRGSLGHLRGVELMPLLLAHAGKLLKYGA”, the protein production result is on record as “failed”.

Consider “MDLHESESRTHVLSTDGDDGYIDMEVNLSSSSSSSTSSSSFFSFPVTSSPPQSREFEFQMCSSAVASGESTTSPADELFYKGQLLPLHLPPRLKMVQKLLLASSSSTAATETPISPRAAADVLSPRRFSSCEIGQDENCFFEISTELKRFIESNENHLGNSWSKKIKHSSITQKLKASRAYIKALFSKQACSDSSEINPRFKIEPSKVSRKKNPFVNSENPLLIHRRSFSGVIQRHSQAKCSTSSSSSSSASSLSSSFSFGSNGSLDLQTLMRSSNASDNSIEGAIEHCKQSFTTRKSNVTESELCSSRTSVSTCGDLDKD”, for which the protein production entry is “failed”.

In the case of “MDLIHEKVFVNRYHYDVRNHEWEKENGVPKTNVEVTFQLHHKDKEANNTSVVAVLQFMIVRDEFVISGIVSQMNHIQNRIVNNPKDFSQEEAEYLAAPLLDTLQRLTYEVTEIALDRPGINLEF”, the protein production result is “not failed”.
